± gives the uncertainty stated by the source.
Experiment: amyloid nucleation score (Sup35N fusion, yeast selection) (log enrichment); library NNK2; higher = more nucleation; inactive = no reads after selection
Method in brief: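 Random libraries were run with three technical output replicates. In each, psi-negative yeast expressing Sup35N fused to peptides of 20 random codons were induced 24 hours with 100 μM copper sulfate and grown 7 days at 30°C on medium lacking adenine and uracil, and input and output plasmid inserts were Illumina-sequenced. The nucleation score is the DiMSum log enrichment of output over input reads, centred on the mode score of non-aggregating sequences, and sequences under 100 input reads were excluded.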

With CVSVAFNRNISWW as the substance, how does the amyloid nucleation score read?
Its amyloid nucleation score is -0.021 ± 0.34.

Which amyloid nucleation score does the source give for SCLMIIPFVFMFEHYTFEEG here?
The amyloid nucleation score was 7.71 ± 0.082.

For LHAIHSFDWPTSLIVYHP, which amyloid nucleation score is on record?
Its amyloid nucleation score is “inactive”.

Which amyloid nucleation score does the source give for EALSKLFFYSWERSFHNGEG here?
Its amyloid nucleation score is 2.11 ± 0.11.

For KLFQNHLIINCPAMVISNEQ, which amyloid nucleation score is on record?
The amyloid nucleation score was 7.609 ± 0.057.

Which amyloid nucleation score does the source give for NFIDRQLSILYMMFLITEC here?
The amyloid nucleation score was -0.774 ± 1.1.

With GVFLGALCVFTSCLSELWMC as the substance, how does the amyloid nucleation score read?
Its amyloid nucleation score is -1.49 ± 0.78.

For IVTAVITM, which amyloid nucleation score is on record?
The amyloid nucleation score was “inactive”.

Which amyloid nucleation score does the source give for FGSVRASGISDFGRMDHGTG here?
Its amyloid nucleation score is -0.079 ± 0.76.

With RFLAN as the substance, how does the amyloid nucleation score read?
The amyloid nucleation score was “inactive”.

For MCLMYANWERFDQKNGLR, which amyloid nucleation score is on record?
Its amyloid nucleation score is 4.12 ± 0.12.

For ILSCRYHNYSQQLVK, which amyloid nucleation score is on record?
Its amyloid nucleation score is “inactive”.

For FINSD, which amyloid nucleation score is on record?
The amyloid nucleation score was “inactive”.

Which amyloid nucleation score does the source give for RMKSFLLNFARNSLCVVRHG here?
Its amyloid nucleation score is 1.43 ± 0.41.

For NLPSWLVGRRSVWECYRLDT, which amyloid nucleation score is on record?
The amyloid nucleation score was 0.043 ± 1.

With NMFGLPKLVLSDLVVRV as the substance, how does the amyloid nucleation score read?
The amyloid nucleation score was 1.72 ± 0.15.

With LYPSFEDTLRWPSPRGMKMC as the substance, how does the amyloid nucleation score read?
The amyloid nucleation score was 0.182 ± 1.1.

Which amyloid nucleation score does the source give for EWRGMLLVSTRLVKDIVR here?
The amyloid nucleation score was -0.553 ± 0.35.

For VWVSSIDMGLFVANLCETAS, which amyloid nucleation score is on record?
The amyloid nucleation score was -0.074 ± 1.1.

For WDGLASLQVSCVAMLLVQSF, which amyloid nucleation score is on record?
The amyloid nucleation score was -0.546 ± 0.39.

With LLPMGYAYISYSLLGNYMSG as the substance, how does the amyloid nucleation score read?
The amyloid nucleation score was -1.37 ± 0.48.

For YRVCAYLAAKEFDSRHGGDA, which amyloid nucleation score is on record?
Its amyloid nucleation score is 0.744 ± 0.37.

For YSFNLCNS, which amyloid nucleation score is on record?
Its amyloid nucleation score is -0.013 ± 0.45.

For LGSVVSTPFCYSMFRTFKKH, which amyloid nucleation score is on record?
Its amyloid nucleation score is 0.109 ± 0.27.

With RLRVY as the substance, how does the amyloid nucleation score read?
Its amyloid nucleation score is -0.781 ± 0.35.

With TVRMIMLANLIQSYWHTIVS as the substance, how does the amyloid nucleation score read?
Its amyloid nucleation score is -0.153 ± 0.65.

For CSCHKSSCLRTTFCLEHSSG, which amyloid nucleation score is on record?
The amyloid nucleation score was 6.866 ± 0.062.

For PWDVGRRR, which amyloid nucleation score is on record?
Its amyloid nucleation score is 0.97 ± 0.55.

For HTSFIMYMYHSRIWHGMYQT, which amyloid nucleation score is on record?
Its amyloid nucleation score is “inactive”.

With DIPLSSAKAYI as the substance, how does the amyloid nucleation score read?
The amyloid nucleation score was 0.443 ± 0.8.

With VQGSEKYGVVLFEY as the substance, how does the amyloid nucleation score read?
The amyloid nucleation score was 5.83 ± 0.094.

Which amyloid nucleation score does the source give for VRDLPMCNPYIRYTLFCQVS here?
Its amyloid nucleation score is -0.497 ± 0.45.

With CHRLSNLKRVDDAGFVRWNY as the substance, how does the amyloid nucleation score read?
The amyloid nucleation score was -0.477 ± 0.23.

Which amyloid nucleation score does the source give for GFMKPSRYLNMVKFNCRLRS here?
Its amyloid nucleation score is “inactive”.

With GLSNLTYDFFPEKPP as the substance, how does the amyloid nucleation score read?
Its amyloid nucleation score is -1.45 ± 0.62.

For QDTFYEWCKNVHVLHTRFGV, which amyloid nucleation score is on record?
Its amyloid nucleation score is 0.905 ± 0.47.

For VKEGSLCFYMRRRTGQL, which amyloid nucleation score is on record?
Its amyloid nucleation score is -0.627 ± 0.76.

With VWYIALLQCQVRITYKGRVR as the substance, how does the amyloid nucleation score read?
Its amyloid nucleation score is 5.43 ± 0.073.

Which amyloid nucleation score does the source give for PAWATTLLDTSTARLYNMLA here?
Its amyloid nucleation score is 0.157 ± 0.18.

Which amyloid nucleation score does the source give for LLEYNIFLRSIVFDGREEWA here?
The amyloid nucleation score was 3.18 ± 0.058.

Which amyloid nucleation score does the source give for ARNWVHNCFWSHISFTSIA here?
Its amyloid nucleation score is 1.59 ± 0.13.

Which amyloid nucleation score does the source give for IRLLCHAVENCGTQRRLWGL here?
The amyloid nucleation score was 0.329 ± 0.6.

Which amyloid nucleation score does the source give for WPLRL here?
Its amyloid nucleation score is 0.348 ± 0.31.

For TTRIS, which amyloid nucleation score is on record?
The amyloid nucleation score was “inactive”.

Which amyloid nucleation score does the source give for FSQFMKLNSRFIRRYMWCVL here?
Its amyloid nucleation score is -0.891 ± 0.55.

Which amyloid nucleation score does the source give for TSDYYTSNVQDSALRHFFSP here?
Its amyloid nucleation score is -0.081 ± 0.34.

With RCERWCPWNFHNQAL as the substance, how does the amyloid nucleation score read?
Its amyloid nucleation score is 0.449 ± 0.51.

Which amyloid nucleation score does the source give for TGCLLWCLLSMEGRESFQDD here?
Its amyloid nucleation score is -0.504 ± 0.78.

With AKSNLVDFYTFWSTIECLTM as the substance, how does the amyloid nucleation score read?
The amyloid nucleation score was -0.808 ± 0.48.

Which amyloid nucleation score does the source give for LWQLPIILWFLRNCVMRNPA here?
The amyloid nucleation score was -0.723 ± 0.79.

Which amyloid nucleation score does the source give for VGGYDNLSILISTLQSSIFS here?
The amyloid nucleation score was -0.779 ± 0.37.

For KVIWIRCLFLYMCWAAHG, which amyloid nucleation score is on record?
Its amyloid nucleation score is -0.557 ± 0.78.

Which amyloid nucleation score does the source give for GYRVDLIILKFDLWYEY here?
Its amyloid nucleation score is “inactive”.

For ESTLDC, which amyloid nucleation score is on record?
The amyloid nucleation score was 0.343 ± 0.41.

With SGTMSLLKMLLEYKLLT as the substance, how does the amyloid nucleation score read?
The amyloid nucleation score was -0.678 ± 0.76.

Which amyloid nucleation score does the source give for PKLPLAESR here?
Its amyloid nucleation score is -0.11 ± 0.53.

With FLISSMHWYCHKPCWGFLGQ as the substance, how does the amyloid nucleation score read?
The amyloid nucleation score was -0.569 ± 0.79.

Which amyloid nucleation score does the source give for LGPAYYYHNYLNLRGLSSGM here?
Its amyloid nucleation score is 0.504 ± 0.74.

For CSMKYGCRVYVRNPSLSECD, which amyloid nucleation score is on record?
Its amyloid nucleation score is 0.547 ± 0.45.

For LGFWL, which amyloid nucleation score is on record?
The amyloid nucleation score was -1.31 ± 0.41.

With VFGWSVRFNYYIFMSMANDV as the substance, how does the amyloid nucleation score read?
The amyloid nucleation score was 3.62 ± 0.13.

Which amyloid nucleation score does the source give for INLYRSVGPKKWYTGEVLMA here?
Its amyloid nucleation score is -0.137 ± 1.1.

With GEGQNEVATHLYCQLAILPV as the substance, how does the amyloid nucleation score read?
Its amyloid nucleation score is 0.28 ± 0.46.

Which amyloid nucleation score does the source give for ESMLSEFFWDHS here?
The amyloid nucleation score was 3.07 ± 0.072.

For CPMCTFLCCLAFY, which amyloid nucleation score is on record?
Its amyloid nucleation score is 8.626 ± 0.04.

With TFGLA as the substance, how does the amyloid nucleation score read?
Its amyloid nucleation score is 1.06 ± 0.4.

For LRRSGRSENSRRMTWVWW, which amyloid nucleation score is on record?
Its amyloid nucleation score is 2.75 ± 0.17.

For NPETQYASLGRS, which amyloid nucleation score is on record?
The amyloid nucleation score was -0.306 ± 0.38.

For NVPCGLN, which amyloid nucleation score is on record?
Its amyloid nucleation score is -0.032 ± 1.1.

With IAACLFYNRSVNIFTGVDGL as the substance, how does the amyloid nucleation score read?
The amyloid nucleation score was 4.09 ± 0.14.

Which amyloid nucleation score does the source give for DRVNGYIIGRLTAYTSVSKD here?
The amyloid nucleation score was -0.317 ± 1.1.

For CMSNAKCKGVDFAAGKLLSC, which amyloid nucleation score is on record?
Its amyloid nucleation score is -0.004 ± 0.49.

For SGAQA, which amyloid nucleation score is on record?
Its amyloid nucleation score is -0.966 ± 0.78.

With YFCSLDSMPQSSVFDYLSAL as the substance, how does the amyloid nucleation score read?
The amyloid nucleation score was -0.43 ± 1.1.

Which amyloid nucleation score does the source give for ALFMDPFAVTLMRGL here?
The amyloid nucleation score was 0.137 ± 0.54.

For CSTTWGDTIAGHEAGLVSLS, which amyloid nucleation score is on record?
The amyloid nucleation score was 1.02 ± 0.37.

Which amyloid nucleation score does the source give for MEEGRS here?
The amyloid nucleation score was 0.525 ± 0.28.

Which amyloid nucleation score does the source give for STIEAGCTVVCA here?
The amyloid nucleation score was 0.24 ± 0.49.

With CLDNNKNYLDSRCGIRCY as the substance, how does the amyloid nucleation score read?
Its amyloid nucleation score is “inactive”.

Which amyloid nucleation score does the source give for GRKLNFGQAFLWLYQVCWFM here?
The amyloid nucleation score was “inactive”.

Which amyloid nucleation score does the source give for TLFRKL here?
Its amyloid nucleation score is -0.543 ± 0.44.

Which amyloid nucleation score does the source give for YLQLRMLTVMGCLRLCTSMP here?
Its amyloid nucleation score is 0.386 ± 0.34.

For CVGGVSNCMRYGKTFRDESY, which amyloid nucleation score is on record?
Its amyloid nucleation score is -0.438 ± 0.27.

Which amyloid nucleation score does the source give for KSYLWASAAVEGNCYNPVNR here?
Its amyloid nucleation score is -0.195 ± 0.48.

With MYMARCKASTVSDYQNS as the substance, how does the amyloid nucleation score read?
The amyloid nucleation score was -0.393 ± 0.55.

With SCRSIRYEWRHDTVGRRSTR as the substance, how does the amyloid nucleation score read?
The amyloid nucleation score was 3.2 ± 0.064.
